Columns and labels:
Experiment in all cases: SPR
Settings in all cases: both partners purified
[1] = molecular target: T1, SARS-CoV-2 Omicron BA.1 S NTD, human Fc-tagged (SARS-CoV-2 Omicron BA.1, strain)
T1 construct: also called BA.1 NTD

[2] = molecular target: T2, SARS-CoV-2 Omicron BA.2 S NTD, human Fc-tagged (SARS-CoV-2 Omicron BA.2, strain)
T2 construct: also called BA.2 NTD
T2 chain: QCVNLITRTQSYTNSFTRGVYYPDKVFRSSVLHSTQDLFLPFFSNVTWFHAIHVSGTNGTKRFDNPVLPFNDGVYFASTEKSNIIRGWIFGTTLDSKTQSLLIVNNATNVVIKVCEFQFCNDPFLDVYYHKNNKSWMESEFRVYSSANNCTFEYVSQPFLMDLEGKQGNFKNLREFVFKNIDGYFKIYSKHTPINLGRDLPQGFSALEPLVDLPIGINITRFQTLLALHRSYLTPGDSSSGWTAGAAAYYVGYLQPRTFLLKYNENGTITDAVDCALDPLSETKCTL

[3] = molecular target: T3, SARS-CoV-2 Omicron BA.2.75 S NTD, human Fc-tagged (SARS-CoV-2 Omicron BA.2.75, strain)
T3 construct: also called BA.2.75 NTD
T3 chain: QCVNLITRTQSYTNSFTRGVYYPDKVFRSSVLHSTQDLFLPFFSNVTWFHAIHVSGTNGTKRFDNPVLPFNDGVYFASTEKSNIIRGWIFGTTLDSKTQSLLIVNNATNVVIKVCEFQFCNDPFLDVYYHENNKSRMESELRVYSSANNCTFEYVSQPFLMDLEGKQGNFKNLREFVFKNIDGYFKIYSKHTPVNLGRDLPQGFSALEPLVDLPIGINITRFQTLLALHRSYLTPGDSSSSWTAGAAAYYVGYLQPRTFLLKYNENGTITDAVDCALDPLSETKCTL

[4] = molecular target: T4, SARS-CoV-2 Omicron BA.2.3.20 S NTD, human Fc-tagged (SARS-CoV-2 Omicron BA.2.3.20, strain)
T4 construct: also called BA.2.3.20 NTD
T4 chain: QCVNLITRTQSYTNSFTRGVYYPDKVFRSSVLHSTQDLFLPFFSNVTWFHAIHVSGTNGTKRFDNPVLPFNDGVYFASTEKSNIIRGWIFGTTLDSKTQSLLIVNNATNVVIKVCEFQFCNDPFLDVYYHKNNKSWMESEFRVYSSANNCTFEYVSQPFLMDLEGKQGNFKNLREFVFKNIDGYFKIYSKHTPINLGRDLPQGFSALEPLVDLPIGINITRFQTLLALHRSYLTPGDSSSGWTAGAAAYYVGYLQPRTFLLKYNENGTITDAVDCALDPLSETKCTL

[5] = molecular target: T5, SARS-CoV-2 Omicron BA.3 S NTD, human Fc-tagged (SARS-CoV-2 Omicron BA.3, strain)
T5 construct: also called BA.3 NTD

[6] = molecular target: T6, SARS-CoV-2 Omicron BA.5 S NTD, human Fc-tagged (SARS-CoV-2 Omicron BA.5, strain)
T6 construct: also called BA.5 NTD
T6 chain: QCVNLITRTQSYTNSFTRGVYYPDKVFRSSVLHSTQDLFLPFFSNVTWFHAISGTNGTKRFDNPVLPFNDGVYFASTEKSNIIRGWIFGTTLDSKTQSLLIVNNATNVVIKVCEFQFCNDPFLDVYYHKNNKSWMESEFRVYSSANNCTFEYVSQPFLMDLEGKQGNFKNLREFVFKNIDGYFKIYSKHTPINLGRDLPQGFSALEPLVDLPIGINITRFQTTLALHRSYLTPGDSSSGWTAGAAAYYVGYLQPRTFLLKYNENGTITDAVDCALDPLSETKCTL

[7] = molecular target: T7, SARS-CoV-2 Omicron XBB S NTD, human Fc-tagged (SARS-CoV-2 Omicron XBB, strain)
T7 construct: also called XBB NTD
T7 chain: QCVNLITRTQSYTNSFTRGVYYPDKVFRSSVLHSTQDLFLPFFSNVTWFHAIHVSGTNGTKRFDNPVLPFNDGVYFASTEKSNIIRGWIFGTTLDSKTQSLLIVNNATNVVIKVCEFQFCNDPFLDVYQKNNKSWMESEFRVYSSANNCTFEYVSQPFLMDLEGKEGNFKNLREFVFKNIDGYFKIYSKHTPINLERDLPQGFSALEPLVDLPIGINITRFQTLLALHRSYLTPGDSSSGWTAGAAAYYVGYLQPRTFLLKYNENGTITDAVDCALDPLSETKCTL

[8] = molecular target: T8, SARS-CoV-2 Omicron XBB.1.5 S NTD, human Fc-tagged (SARS-CoV-2 Omicron XBB.1.5, strain)
T8 construct: also called XBB.1.5 NTD
T8 chain: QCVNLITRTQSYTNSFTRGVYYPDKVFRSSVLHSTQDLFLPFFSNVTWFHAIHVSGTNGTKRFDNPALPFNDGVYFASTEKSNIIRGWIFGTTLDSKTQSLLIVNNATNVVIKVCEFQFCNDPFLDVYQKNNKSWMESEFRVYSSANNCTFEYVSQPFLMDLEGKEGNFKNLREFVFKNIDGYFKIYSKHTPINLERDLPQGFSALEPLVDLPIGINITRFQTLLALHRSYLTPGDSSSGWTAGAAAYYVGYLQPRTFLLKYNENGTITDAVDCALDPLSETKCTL

[9] = molecular target: T9, SARS-CoV-2 Omicron XBB.1.16 S NTD, human Fc-tagged (SARS-CoV-2 Omicron XBB.1.16, strain)
T9 construct: also called XBB.1.16 NTD
T9 chain: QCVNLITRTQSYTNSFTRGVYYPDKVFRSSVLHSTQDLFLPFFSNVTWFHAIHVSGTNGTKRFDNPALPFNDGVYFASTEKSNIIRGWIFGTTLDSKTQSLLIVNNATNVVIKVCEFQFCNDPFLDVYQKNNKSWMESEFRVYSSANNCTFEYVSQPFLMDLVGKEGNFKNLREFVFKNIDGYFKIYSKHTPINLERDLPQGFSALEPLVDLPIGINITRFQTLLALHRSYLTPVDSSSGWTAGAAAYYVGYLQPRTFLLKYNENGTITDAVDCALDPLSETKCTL

[10] = molecular target: T10, SARS-CoV-2 Omicron EG.5.1 S NTD, human Fc-tagged (SARS-CoV-2 Omicron EG.5.1, strain)
T10 construct: also called EG.5.1 NTD
T10 chain: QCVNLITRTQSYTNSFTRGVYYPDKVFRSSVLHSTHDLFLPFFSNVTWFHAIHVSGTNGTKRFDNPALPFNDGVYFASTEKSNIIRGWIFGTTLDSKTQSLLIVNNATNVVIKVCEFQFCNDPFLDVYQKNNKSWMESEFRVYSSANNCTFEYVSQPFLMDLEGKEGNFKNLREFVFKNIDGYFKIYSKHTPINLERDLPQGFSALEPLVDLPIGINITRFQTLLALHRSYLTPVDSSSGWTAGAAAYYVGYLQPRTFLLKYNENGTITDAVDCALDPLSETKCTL

[11] = molecular target: T11, SARS-CoV-2 Omicron BA.2.86 S NTD, human Fc-tagged (SARS-CoV-2 Omicron BA.2.86, strain)
T11 construct: also called BA.2.86 NTD
T11 chain: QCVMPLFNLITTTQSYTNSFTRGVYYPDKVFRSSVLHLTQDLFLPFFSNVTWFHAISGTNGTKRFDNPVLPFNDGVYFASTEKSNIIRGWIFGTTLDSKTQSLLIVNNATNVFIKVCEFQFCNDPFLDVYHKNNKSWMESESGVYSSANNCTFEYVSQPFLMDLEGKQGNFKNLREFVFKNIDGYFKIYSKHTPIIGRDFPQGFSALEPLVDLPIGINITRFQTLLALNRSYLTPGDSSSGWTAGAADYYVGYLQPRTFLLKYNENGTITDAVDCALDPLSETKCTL

[12] = molecular target: T12, SARS-CoV-2 Omicron JN.1 S NTD, human Fc-tagged (SARS-CoV-2 Omicron JN.1, strain)
T12 construct: also called JN.1 NTD
T12 chain: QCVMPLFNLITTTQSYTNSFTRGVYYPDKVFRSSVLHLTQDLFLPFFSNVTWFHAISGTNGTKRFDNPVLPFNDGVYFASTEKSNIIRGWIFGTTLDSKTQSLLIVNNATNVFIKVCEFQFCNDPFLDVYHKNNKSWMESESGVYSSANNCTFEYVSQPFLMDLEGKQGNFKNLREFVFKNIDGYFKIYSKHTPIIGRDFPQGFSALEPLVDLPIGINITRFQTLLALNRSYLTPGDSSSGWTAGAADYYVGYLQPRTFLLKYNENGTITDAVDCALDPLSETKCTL

[13] = molecular target: T13, SARS-CoV-2 Delta S NTD, human Fc-tagged (SARS-CoV-2 Delta (B.1.617.2), strain)
T13 construct: also called Delta NTD

[14] = molecular target: T14, SARS-CoV-2 Lambda S NTD, human Fc-tagged (SARS-CoV-2 Lambda (C.37), strain)
T14 construct: also called Lambda NTD
T14 chain: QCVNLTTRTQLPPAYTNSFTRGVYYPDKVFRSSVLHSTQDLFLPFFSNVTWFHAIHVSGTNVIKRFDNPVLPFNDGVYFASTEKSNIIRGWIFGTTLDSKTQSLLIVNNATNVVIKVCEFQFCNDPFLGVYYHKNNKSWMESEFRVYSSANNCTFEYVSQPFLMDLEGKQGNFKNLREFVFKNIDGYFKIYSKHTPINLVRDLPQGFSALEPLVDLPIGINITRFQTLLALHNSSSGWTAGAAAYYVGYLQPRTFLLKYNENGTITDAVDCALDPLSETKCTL

Measured: Kd

B1: nanobody N235, His-tagged (VHH)
VHH: QVQLQESGGGLVQPGGSLRLSCAASGLIISRYDMSWYRQAPGKERELVATTPIPAARPQYADSVKGRFTISRDNAKNTVSLQMNSLKPEDTAVYYCNLGPESQDHNYNYWGQGTQVTVSS
< 200 pM: all assays above

Source: PMC11091055 (Signal Transduction and Targeted Therapy, 2024)
